Results published in publication PMC9262907, “Modulating mitofusins to control mitochondrial function and signaling” (Nature Communications, 2022).
Where no end group is shown, it is not given here.

T1: MFN2-HR2 domain (residues 678–757) (human, UniProt O95140 678-757)
T1 chain: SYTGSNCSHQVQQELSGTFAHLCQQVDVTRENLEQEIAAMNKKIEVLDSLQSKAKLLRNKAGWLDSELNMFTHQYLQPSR


Legend:
[1] = biological target: T1, MFN2-HR2 domain (residues 678–757); experiment: MST
[2] = biological target: the molecule itself; experiment: native gel or EMSA; BN-PAGE of digitonin lysates of mitochondria isolated from MEFs, without GTP; blot with anti-MFN2

| Kd [1] | Binder | stoichiometry N [2] |
| --- | --- | --- |
| 3000 nM | QIAEAVRLIMDSLHMAAR (also: 'Gly' in name not defined) [367–384Gly peptide] | – |
| – | mitofusin-2 (MFN2) of MEF mitochondria (natural protein, mouse (endogenous in MEFs), UniProt Q80U63 1-757, looked up, mitofusin-2 (MFN2), endogenous in mouse embryonic fibroblasts, detected with an anti-MFN2 antibody; source: endogenous, mitochondria isolated from MEFs, digitonin lysate) MSLLFSRCNSIVTVKKDKRHMAEVNASPLKHFVTAKKKINGIFEQLGAYIQESASFLEDTHRNTELDPVTTEEQVLDVKGYLSKVRGISEVLARRHMKVAFFGRTSNGKSTVINAMLWDKVLPSGIGHTTNCFLRVGGTDGHEAFLLTEGSEEKKSVKTVNQLAHALHQDEQLHAGSMVSVMWPNSKCPLLKDDLVLMDSPGIDVTTELDSWIDKFCLDADVFVLVANSESTLMQTEKQFFHKVSERLSRPNIFILNNRWDASASEPEYMEEVRRQHMERCTSFLVDELGVVDRAQAGDRIFFVSAKEVLSARVQKAQGMPEGGGALAEGFQVRMFEFQNFERQFEECISQSAVKTKFEQHTVRAKQIAEAVRLIMDSLHIAAQEQRVYCLEMREERQDRLRFIDKQLELLAQDYKLRIKQITEEVERQVSTAMAEEIRRLSVLVDEYQMDFHPSPVVLKVYKNELHRHIEEGLGRNLSDRCSTAIASSLQTMQQDMIDGLKPLLPVSMRNQIDMLVPRQCFSLSYDLNCDKLCADFQEDIEFHFSLGWTMLVNRFLGPKNSRRALLGYSDQVQRPLPLTPANPSMPPLPQSSLTQEELMVSMVTGLASLTSRTSMGILVVGGVVWKAVGWRLIALSFGLYGLLYVYERLTWTTKAKERAFKRQFVEYASEKLQLIISYTGSNCSHQVQQELSGTFAHLCQQVDITRDNLEQEIAAMNKKVEALDSLQSRAKLLRNKAGWLDSELNMFTHQYLQPSR | 2 |
| 1500 nM | QDRLKFIDKQLELLAQDYKLR (also: 'Gly' in name not defined) [398–418Gly peptide] | – |
